Measured values: publication PMC6440998, “Tunable microsecond dynamics of an allosteric switch regulate the activity of a AAA+ disaggregation machine” (Nature Communications, 2019)

Tested on: T1, Nc1ncnc2c1ncn2[C@@H]1O[C@H](COP(=O)(O)OP(=O)(O)OP(=O)(O)O)[C@@H](O)[C@H]1O
T1 construct: full length, N-domain, NBD1, M domain, NBD2; pET28b, His6 tag with TEV cleavage site; expressed in E. coli BL21(DE3) pLysS; homohexamer
Test: purified protein
Type: biochemical, Thermus thermophilus
Conditions: basal activity, no casein, 50 mM HEPES pH 7.8, 50 mM KCl, 10 mM MgCl2, 25 °C, Hill fit

Chain of TT ClpB (Thermus thermophilus HB8) (chain, as listed by the source): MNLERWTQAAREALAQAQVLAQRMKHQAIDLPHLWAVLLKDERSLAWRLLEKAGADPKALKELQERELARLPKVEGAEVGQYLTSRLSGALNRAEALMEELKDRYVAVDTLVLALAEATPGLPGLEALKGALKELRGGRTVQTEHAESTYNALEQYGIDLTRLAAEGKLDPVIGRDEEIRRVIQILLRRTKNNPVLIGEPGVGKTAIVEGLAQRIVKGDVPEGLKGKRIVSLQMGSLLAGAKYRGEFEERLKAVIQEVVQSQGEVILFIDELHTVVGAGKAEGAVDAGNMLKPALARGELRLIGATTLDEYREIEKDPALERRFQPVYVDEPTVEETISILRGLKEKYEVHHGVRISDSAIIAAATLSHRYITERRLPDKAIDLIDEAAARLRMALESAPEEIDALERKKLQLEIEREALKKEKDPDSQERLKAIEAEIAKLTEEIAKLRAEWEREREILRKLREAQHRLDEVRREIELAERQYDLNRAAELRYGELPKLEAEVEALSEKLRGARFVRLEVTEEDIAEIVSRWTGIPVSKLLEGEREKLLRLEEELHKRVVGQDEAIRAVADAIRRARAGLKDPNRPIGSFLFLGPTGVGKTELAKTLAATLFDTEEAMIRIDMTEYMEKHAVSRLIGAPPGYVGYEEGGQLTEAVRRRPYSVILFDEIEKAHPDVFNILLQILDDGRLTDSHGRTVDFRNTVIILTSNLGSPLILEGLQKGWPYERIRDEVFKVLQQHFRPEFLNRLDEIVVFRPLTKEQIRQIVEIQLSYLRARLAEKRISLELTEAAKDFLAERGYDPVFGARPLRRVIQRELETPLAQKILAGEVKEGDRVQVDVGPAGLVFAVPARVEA

For TT ClpB (Thermus thermophilus HB8), the K0.5 was 390 ± 15 µM and the kcat was 0.0533 ± 0.00167 s⁻¹.
